Consider 1 molecule from US6680176B2, “Identification of candidate ligands which modulate antigen presenting cells” (The United States of America, as represented by the …, priority 1999, dated 2004).

In this assay the test system is CD8 killer T cells. Description: Replacement of T help by soluble factors in CD4 depleted anti-H-Y killer cultures (JAM Test). The format is cell-based, mouse. The note with it: CD4 depleted primed B6 female spleen cells, male stimulators. From the text: Two weeks to 1 year after in vivo priming, spleens were removed from the responders and depleted for CD4 T cells using the Midi MACs system (Miltenyi Biotec, Germany) with MACS magnetic beads conjugated to the anti-mouse CD4 monoclonal antibody, GK1.5. By FACS analysis with the non-competing anti-CD4 antibody RM4-4 (Pharmingen, San Diego, Calif.), the depleted populations routinely contained less than 0.2% CD4 cells.
Two weeks or later after the last in vivo immunization, 4×10^6 spleen cells were restimulated in 2 ml cultures with 2×10^6 irradiated B6 male spleen cells or 1.5×10^5 of the various populations of dendritic cells, with or with out an exogenous source of mouse IL-2, (10% Rat Con A supernatant, from which the ConA has been removed, Collaborative Biomedical Products, Bedford Mass.). Six days later the cultures were tested for their ability to kill male and female targets using the JAM Test. (55).

B1: IL-12: cytokine IL-12 added to the cultures (protein, UniProt P43431 23-215; P43432 23-335, looked up)
Interleukin-12 subunit alpha: RVIPVSGPARCLSQSRNLLKTTDDMVKTAREKLKHYSCTAEDIDHEDITRDQTSTLKTCLPLELHKNESCLATRETSSTTRGSCLPPQKTSLMMTLCLGSIYEDLKMYQTEFQAINAALQNHNHQQIILDKGMLVAIDELMQSLNHNGETLRQKPPVGEADPYRVKMKLCILLHAFSTRVVTINRVMGYLSSA
Interleukin-12 subunit beta: MWELEKDVYVVEVDWTPDAPGETVNLTCDTPEEDDITWTSDQRHGVIGSGKTLTITVKEFLDAGQYTCHKGGETLSHSHLLLHKKENGIWSTEILKNFKNKTFLKCEAPNYSGRFTCSWLVQRNMDLKFNIKSSSSSPDSRAVTCGMASLSAEKVTLDQRDYEKYSVSCQEDVTCPTAEETLPIELALEARQQNKYENYSTSFFIRDIIKPDPPKNLQMKPLKNSQVEVSWEYPDSWSTPHSYFSLKFFVRIQRKKEKMKETEEGCNQKGAFLVEKTSTEVQCKGGNVCVQAQDRYYNSSCSKWACVPCRVRS
Turning to B1, the “restoration of killer response in the absence of CD4 helpers by addition to the culture” value is “did not replace the activity of helpers”.
